Data: IntAct's records for PubMed 31515488

B1: DNA mismatch repair protein Mlh1 (Homo sapiens), P40692 (parent)
chain: MSFVAGVIRRLDETVVNRIAAGEVIQRPANAIKEMIENCLDAKSTSIQVIVKEGGLKLIQIQDNGTGIRKEDLDIVCERFTTSKLQSFEDLASISTYGFRGEALASISHVAHVTITTKTADGKCAYRASYSDGKLKAPPKPCAGNQGTQITVEDLFYNIATRRKALKNPSEEYGKILEVVGRYSVHNAGISFSVKKQGETVADVRTLPNASTVDNIRSIFGNAVSRELIEIGCEDKTLAFKMNGYISNANYSVKKCIFLLFINHRLVESTSLRKAIETVYAAYLPKNTHPFLYLSLEISPQNVDVNVHPTKHEVHFLHEESILERVQQHIESKLLGSNSSRMYFTQTLLPGLAGPSGEMVKSTTSLTSSSTSGSSDKVYAHQMVRTDSREQKLDAFLQPLSKPLSSQPQAIVTEDKTDISSGRARQQDEEMLELPAPAEVAAKNQSLEGDTTKGTSEMSEKRGPTSSNPRKRHREDSDVEMVEDDSRKEMTAACTPRRRIINLTSVLSLQEEINEQGHEVLREMLHNHSFVGCVNPQWALAQHQTKLYLLNTTKLSEELFYQILIYDFANFGVLRLSEPAPLFDLAMLALDSPESGWTEEDGPKEGLAEYIVEFLKKKAEMLADYFSLEIDEEGNLIGLPLLIDNYVPPLEGLPIFILRLATEVNWDEEKECFESLSKECAMFYSIRKQYISEESTLSGQQSEVPGSIPNSWKWTVEHIVYKALRSHILPPKHFTEDGNILQLANLPDLYKVFERC
B2: Isoform 6 of F-box only protein 11 (Homo sapiens), Q86XK2-6 (parent)
chain: MVAEESGPGAQNSPYQLRRKTLLPKRTACPTKNSMEGASTSTTENFGHRAKRARVSGKSQDLSAAPAEQYLQEKLPDEVVLKIFSYLLEQDLCRAACVCKRFSELANDPILWKRLYMEVFEYTRPMMHPEPGKFYQINPEEYEHPNPWKESFQQLYKGAHVKPGFAEHFYSNPARYKGRENMLYYDTIEDALGGVQEAHFDGLIFVHSGIYTDEWIYIESPITMIGAAPGKVADKVIIENTRDSTFVFMEGSEDAYVGYMTIRFNPDDKSAQHHNAHHCLEITVNCSPIIDHCIIRSTCTVGSAVCVSGQGACPTIKHCNISDCENVGLYITDHAQGIYEDNEISNNALAGIWVKNHGNPIIRRNHIHHGRDVGVFTFDHGMGYFESCNIHRNRIAGFEVKAYANPTVVRCEIHHGQTGGIYVHEKGRGQFIENKIYANNFAGVWITSNSDPTIRGNSIFNGNQGGVYIFGDGRGLIEGNDIYGNALAGIQIRTNSCPIVRHNKIHDGQHGGIYVHEKGQGVIEENEVYSNTLAGVWVTTGSTPVLRRNRIHSGKQVGVYFYDNGHGVLEDNDIYNHMYSGVQIRTGSNPKIRRNKIWGGQNGGILVYNSGLGCIEDNEIFDNAMAGVWIKTDSNPTLRRNKIHDGRDGGICIFNGGRGLLEENDIFRNAQAGVLISTNSHPILRKNRIFDGFAAGIEITNHATATLEGNQIFNNRFGGLFLASGVNVTMKDNKIMNNQDAIEKAVSRGQCLYKISSYTSYPMHDFYRCHTCNTTDRNAICVNCIKKCHQGHDVEFIRHDRFFCDCGAGTLSNPCTLAGEPTHDTDTLYDSAPPIESNTLQHN
B3: Pre-B-cell leukemia transcription factor-interacting protein 1 (Homo sapiens), Q96AQ6 (parent)
chain: MASCPDSDNSWVLAGSESLPVETLGPASRMDPESERALQAPHSPSKTDGKELAGTMDGEGTLFQTESPQSGSILTEETEVKGTLEGDVCGVEPPGPGDTVVQGDLQETTVVTGLGPDTQDLEGQSPPQSLPSTPKAAWIREEGRCSSSDDDTDVDMEGLRRRRGREAGPPQPMVPLAVENQAGGEGAGGELGISLNMCLLGALVLLGLGVLLFSGGLSESETGPMEEVERQVLPDPEVLEAVGDRQDGLREQLQAPVPPDSVPSLQNMGLLLDKLAKENQDIRLLQAQLQAQKEELQSLMHQPKGLEEENAQLRGALQQGEAFQRALESELQQLRARLQGLEADCVRGPDGVCLSGGRGPQGDKAIREQGPREQEPELSFLKQKEQLEAEAQALRQELERQRRLLGSVQQDLERSLQDASRGDPAHAGLAELGHRLAQKLQGLENWGQDPGVSANASKAWHQKSHFQNSREWSGKEKWWDGQRDRKAEHWKHKKEESGRERKKNWGGQEDREPAGRWKEGRPRVEESGSKKEGKRQGPKEPPRKSGSFHSSGEKQKQPRWREGTKDSHDPLPSWAELLRPKYRAPQGCSGVDECARQEGLTFFGTELAPVRQQELASLLRTYLARLPWAGQLTKELPLSPAFFGEDGIFRHDRLRFRDFVDALEDSLEEVAVQQTGDDDEVDDFEDFIFSHFFGDKALKKRSGKKDKHSQSPRAAGPREGHSHSHHHHHRG
B4: Synaptotagmin-16 (Homo sapiens), Q17RD7 (parent)
chain: MVLAMASQDVQNFFQPFSSWISRVYEALQQAGDMLSASLVNISKQDSKLSDKLDQDLDNIQIQETYFEDEEQDNDWSQEDANSLFLEVDHFSCCNSDLQDSAQNSSPSLSQHAKDSCSTMSQWPNWASDDRKLPHVLSSIAEEEHHLEKQRSGLQHGFDSQLPGTLETVNGKKQVNSFGDDEELSTSSDSDEEVIKQFEISVSRSQSFRSVTSEKGKQTGLEQKPKFSRSLLTHGEDGTEVSACEDLDGASQRRYSENLSYGEDDHIPAHSQSPCERGDAKHHGTSHQESSVVQSLRRQSTEGSLEMETAFNSRGFEDSYATDSSSMWSPEEQDRTNLQVPSGVSEPISKCGDLDVIFEYRAASQKLTVTIVRAQGLPDKDRSGVNSWQVHVVLLPGKKHRGRTNIQRGPNPVFREKVTFAKLEPRDVAACAVRFRLYAARKMTRERMMGEKLFYLSHLHPEGEMKVTLVLEPRSNISSGGSPLSPSAVSHSDSTSSTQSLSHGGAPELLVGLSYNATTGRLSVEMIKGSHFRNLAVNRAPDTYGKLFLLNSVGQEMSRCKTSIRRGQPNPVYKETFVFQVALFQLSDVTLMISVYNRRTMKRKEMIGWIALGQNSSGEEEQDHWEEMKETKGQQICRWHTLLES
B5: Ras-related protein Rab-5C (Homo sapiens), P51148 (parent)
chain: MAGRGGAARPNGPAAGNKICQFKLVLLGESAVGKSSLVLRFVKGQFHEYQESTIGAAFLTQTVCLDDTTVKFEIWDTAGQERYHSLAPMYYRGAQAAIVVYDITNTDTFARAKNWVKELQRQASPNIVIALAGNKADLASKRAVEFQEAQAYADDNSLLFMETSAKTAMNVNEIFMAIAKKLPKNEPQNATGAPGRNRGVDLQENNPASRSQCCSN
partner: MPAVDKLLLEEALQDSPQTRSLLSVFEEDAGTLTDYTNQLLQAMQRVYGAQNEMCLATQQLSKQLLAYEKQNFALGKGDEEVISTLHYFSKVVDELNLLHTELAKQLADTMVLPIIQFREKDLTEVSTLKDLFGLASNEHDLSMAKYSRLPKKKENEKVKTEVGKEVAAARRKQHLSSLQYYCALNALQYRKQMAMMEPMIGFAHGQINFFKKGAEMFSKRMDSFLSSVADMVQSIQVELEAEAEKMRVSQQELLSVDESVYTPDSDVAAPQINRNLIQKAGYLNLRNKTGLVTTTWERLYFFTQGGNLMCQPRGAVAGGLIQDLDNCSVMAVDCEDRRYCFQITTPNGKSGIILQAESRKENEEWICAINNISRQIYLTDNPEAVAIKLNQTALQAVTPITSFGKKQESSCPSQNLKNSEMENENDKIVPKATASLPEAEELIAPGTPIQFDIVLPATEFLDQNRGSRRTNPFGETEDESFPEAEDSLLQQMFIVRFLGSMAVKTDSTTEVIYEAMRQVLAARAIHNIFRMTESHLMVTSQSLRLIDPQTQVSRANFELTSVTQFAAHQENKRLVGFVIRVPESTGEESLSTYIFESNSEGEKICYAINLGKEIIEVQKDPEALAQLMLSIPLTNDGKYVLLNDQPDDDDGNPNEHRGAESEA
B6: F-box/WD repeat-containing protein 1A (Homo sapiens), Q9Y297 (parent)
chain: MDPAEAVLQEKALKFMCSMPRSLWLGCSSLADSMPSLRCLYNPGTGALTAFQNSSEREDCNNGEPPRKIIPEKNSLRQTYNSCARLCLNQETVCLASTAMKTENCVAKTKLANGTSSMIVPKQRKLSASYEKEKELCVKYFEQWSESDQVEFVEHLISQMCHYQHGHINSYLKPMLQRDFITALPARGLDHIAENILSYLDAKSLCAAELVCKEWYRVTSDGMLWKKLIERMVRTDSLWRGLAERRGWGQYLFKNKPPDGNAPPNSFYRALYPKIIQDIETIESNWRCGRHSLQRIHCRSETSKGVYCLQYDDQKIVSGLRDNTIKIWDKNTLECKRILTGHTGSVLCLQYDERVIITGSSDSTVRVWDVNTGEMLNTLIHHCEAVLHLRFNNGMMVTCSKDRSIAVWDMASPTDITLRRVLVGHRAAVNVVDFDDKYIVSASGDRTIKVWNTSTCEFVRTLNGHKRGIACLQYRDRLVVSGSSDNTIRLWDIECGACLRVLEGHEELVRCIRFDNKRIVSGAYDGKIKVWDLVAALDPRAPAGTLCLRTLVEHSGRVFRLQFDEFQIVSSSHDDTILIWDFLNDPAAQAEPPRSPSRTYTYISR
B7: Transmembrane protein 51 (Homo sapiens), Q9NW97 (parent)
chain: MMAQSKANGSHYALTAIGLGMLVLGVIMAMWNLVPGFSAAEKPTAQGSNKTEVGGGILKSKTFSVAYVLVGAGVMLLLLSICLSIRDKRKQRQGEDLAHVQHPTGAGPHAQEEDSQEEEEEDEEAASRYYVPSYEEVMNTNYSEARGEEQNPRLSISLPSYESLTGLDETTPTSTRADVEASPGNPPDRQNSKLAKRLKPLKVRRIKSEKLHLKDFRINLPDKNVPPPSIEPLTPPPQYDEVQEKAPDTRPPD
partner: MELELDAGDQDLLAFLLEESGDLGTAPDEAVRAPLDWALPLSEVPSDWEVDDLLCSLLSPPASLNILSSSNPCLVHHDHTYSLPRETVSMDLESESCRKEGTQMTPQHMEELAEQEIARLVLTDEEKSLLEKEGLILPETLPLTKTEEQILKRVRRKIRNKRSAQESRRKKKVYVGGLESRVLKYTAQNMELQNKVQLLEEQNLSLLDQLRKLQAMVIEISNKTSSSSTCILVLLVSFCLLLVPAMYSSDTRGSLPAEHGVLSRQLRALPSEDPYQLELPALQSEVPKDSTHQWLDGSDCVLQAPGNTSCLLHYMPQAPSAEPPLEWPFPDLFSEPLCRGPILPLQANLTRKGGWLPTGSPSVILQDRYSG

Variants of: B1
Conditions: with msh3_human MSH3, P20585

Variant | effect of a mutation on the interaction
A441T | with no effect

Variants of: B1
Conditions: with ima1_human KPNA2, P52292

Variant | effect of a mutation on the interaction
A441T | with no effect

Variants of: B1
Conditions: with psa1_human PSMA1, P25786

Variant | effect of a mutation on the interaction
A441T | with no effect

Variants of: B2
Conditions: with skp1_human SKP1, P63208

Variant | effect of a mutation on the interaction
D507N | with no effect
T532S | with no effect
A703T | with no effect

Variants of: B3
Conditions: with sgta_human SGTA

Variant | effect of a mutation on the interaction
R499Q | with no effect

Variants of: B3
Conditions: with mdfi_human MDFI

Variant | effect of a mutation on the interaction
G357D | with no effect

Variants of: B4
Conditions: with praf1_human RABAC1, Q9UI14

Variant | effect of a mutation on the interaction
R131L | with no effect
A536T | with no effect

Variants of: B4
Conditions: with rtn4_human RTN4, Q9NQC3

Variant | effect of a mutation on the interaction
R131L | with no effect
A536T | with no effect

Variants of: B4
Conditions: with atrap_human AGTRAP

Variant | effect of a mutation on the interaction
R131L | with no effect
A536T | with no effect

Variants of: B5
Conditions: with dp13b_human APPL2, Q8NEU8

Variant | effect of a mutation on the interaction
R196Q | with no effect
N206S | with no effect

Variants of: B5
Conditions: with dp13b_human APPL2, Q8NEU8
Remark: another data set of the same source

Variant | effect of a mutation on the interaction
G93R | with no effect

Variants of: B6
Conditions: with tacc1_human TACC1, O75410

Variant | effect of a mutation on the interaction
L8M | with no effect
T414A | disrupting interaction strength
I439V | disrupting interaction strength
P592H | with no effect
R594H | with no effect
T601S | with no effect

Variants of: B7
Conditions: with creb3_human CREB3, O43889

Variant | effect of a mutation on the interaction
R146W | with no effect
P159S | with no effect
D188G | with no effect
